From PMC2943598 (Nucleic Acids Research, 2010)

Tests used:
[1] = target: T1, Alexa fluor 488-labeled M. thermautotrophicus ND-GluRS (Methanothermobacter thermautotrophicus), O26157; assay: fluorescence polarisation; conditions: remark: other sources report otherwise
T1 chain: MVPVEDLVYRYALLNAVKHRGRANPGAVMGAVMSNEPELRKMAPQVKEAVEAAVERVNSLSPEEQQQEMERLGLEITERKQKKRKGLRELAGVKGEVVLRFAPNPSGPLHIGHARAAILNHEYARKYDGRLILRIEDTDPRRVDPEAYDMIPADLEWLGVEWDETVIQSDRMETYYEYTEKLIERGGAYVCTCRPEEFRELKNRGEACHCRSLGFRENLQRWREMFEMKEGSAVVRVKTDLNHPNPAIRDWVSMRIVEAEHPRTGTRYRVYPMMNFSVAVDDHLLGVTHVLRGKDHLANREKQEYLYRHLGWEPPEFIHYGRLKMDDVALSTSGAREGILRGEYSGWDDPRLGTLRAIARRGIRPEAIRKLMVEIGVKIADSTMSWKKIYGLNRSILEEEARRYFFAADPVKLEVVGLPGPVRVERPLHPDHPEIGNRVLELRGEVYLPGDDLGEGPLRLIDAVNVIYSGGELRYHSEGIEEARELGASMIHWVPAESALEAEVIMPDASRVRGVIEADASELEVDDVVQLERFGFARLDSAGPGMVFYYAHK

[2] = target: T2, Methanothermobacter thermautotrophicus non-discriminating glutamyl-tRNA synthetase (Methanothermobacter thermautotrophicus), O26157; assay: nitrocellulose filter-binding competition; conditions: remark: other sources report otherwise
T2 chain: T1 chain

[3] = target: T3, Methanothermobacter thermautotrophicus glutamyl-tRNA(Gln) amidotransferase GatDE, His6-tagged (Methanothermobacter thermautotrophicus), O26802; assay: SEC; conditions: remark: other sources report otherwise
T3 chain 1: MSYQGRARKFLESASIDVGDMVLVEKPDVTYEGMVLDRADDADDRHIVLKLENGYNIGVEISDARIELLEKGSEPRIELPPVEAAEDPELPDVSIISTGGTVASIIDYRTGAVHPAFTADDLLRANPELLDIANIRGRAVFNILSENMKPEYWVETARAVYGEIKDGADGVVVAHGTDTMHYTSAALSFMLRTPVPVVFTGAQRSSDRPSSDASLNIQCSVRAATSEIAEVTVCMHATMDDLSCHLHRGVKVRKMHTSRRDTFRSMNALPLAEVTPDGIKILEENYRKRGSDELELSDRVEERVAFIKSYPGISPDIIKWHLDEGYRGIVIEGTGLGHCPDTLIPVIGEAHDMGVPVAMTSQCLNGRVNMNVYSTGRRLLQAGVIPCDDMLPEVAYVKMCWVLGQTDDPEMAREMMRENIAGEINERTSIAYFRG
T3 chain 2: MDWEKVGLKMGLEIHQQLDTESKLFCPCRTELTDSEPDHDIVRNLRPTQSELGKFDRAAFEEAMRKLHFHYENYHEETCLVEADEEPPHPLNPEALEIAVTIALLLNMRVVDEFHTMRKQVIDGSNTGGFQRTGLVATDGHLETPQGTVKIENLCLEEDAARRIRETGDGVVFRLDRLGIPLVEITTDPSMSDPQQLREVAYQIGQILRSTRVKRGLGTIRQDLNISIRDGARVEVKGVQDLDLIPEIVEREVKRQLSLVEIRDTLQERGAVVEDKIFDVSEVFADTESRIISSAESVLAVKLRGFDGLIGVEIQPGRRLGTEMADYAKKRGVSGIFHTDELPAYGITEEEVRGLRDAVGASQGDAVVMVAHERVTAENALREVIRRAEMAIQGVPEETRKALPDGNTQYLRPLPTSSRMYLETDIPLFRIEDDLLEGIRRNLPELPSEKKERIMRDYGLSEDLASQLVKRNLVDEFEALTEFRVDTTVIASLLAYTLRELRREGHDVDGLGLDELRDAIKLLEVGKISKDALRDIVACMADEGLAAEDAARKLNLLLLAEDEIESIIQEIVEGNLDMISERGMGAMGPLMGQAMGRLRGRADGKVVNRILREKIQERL

SEC = target: the molecule itself; assay: SEC

B1: Methanothermobacter thermautotrophicus glutamyl-tRNA(Gln) amidotransferase GatDE, His6-tagged, O26802 1-435; O26803 1-619 (complex)
chain 1: T3 chain 1
chain 2: T3 chain 2
modifications: here or on the partner: Alexa fluor 488 label (residues not stated)
Kd [1]: 100 nM | Ki [2]: 33 nM

B2: Methanothermobacter thermautotrophicus non-discriminating glutamyl-tRNA synthetase, O26157 1-553 (enzyme)
chain: T1 chain
stoichiometry N (ND-GluRS monomers per GatDE homodimer) [3]: 2

B3: Methanothermobacter thermautotrophicus glutamyl-tRNA(Gln) amidotransferase GatDE, His6-tagged (complex)
chain 1: T3 chain 1
chain 2: T3 chain 2
stoichiometry N (SEC): 2
